Earlier results on two substances are cited in PMC12152951.

Data set [1] addresses TSLPR (Homo sapiens) (UniProt Q9HC73).
Data set [2] deals with TSLPR-IL7Rα fusion protein (Homo sapiens) (UniProt Q9HC73).
Data set [3] addresses IL7Rα (Homo sapiens) (UniProt P16871).
UniProt P16871, sequence (P16871 21-239): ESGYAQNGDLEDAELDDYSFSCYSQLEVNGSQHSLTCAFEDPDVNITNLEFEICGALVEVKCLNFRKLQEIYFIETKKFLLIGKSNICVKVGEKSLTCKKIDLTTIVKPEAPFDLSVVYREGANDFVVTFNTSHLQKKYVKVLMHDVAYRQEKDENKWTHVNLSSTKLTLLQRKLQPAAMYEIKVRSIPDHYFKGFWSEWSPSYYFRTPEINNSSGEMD

By Kd is commonly meant the equilibrium constant for the complex coming apart. Regarding TSLP (from UniProt Q969D9), the Kd was 32 nM in data set [1] and 0.09 nM in data set [2].

With “TSLP-TSLPR complex (from UniProt Q969D9)”, the Kd in data set [3] is 29 nM.
